The target of experiment [1] is T1, human mesothelin on MSLN-positive cells (NCI-H292, SKOV3) (human, UniProt Q13421 296-598).
T1 construct: whole, on cells; Endogenous expression on tumour cell lines; H1581 and Raji cells served as MSLN-negative controls; also called cell surface MSLN
As to the kind of experiment: Mirrorball microplate cytometry on adherent NCI-H292 (MSLN-positive) cells, 2 h; biotinylated VHH detected with streptavidin-PE; MMFI. On the procedure: Cells (5000 cells well-1) were seeded in Nunc® MicroWell 96-well optical bottom plates (Sigma-Aldrich) and incubated at 37° C. in a humidified atmosphere containing 5% CO₂ for 24-48 h. Each anti-MSLN biotinylated VHH was serially diluted in Live Cell Imaging Solution (LCIS; Thermo Fisher) and 50 μL of each Ab variant was added to the assay plate and incubated at 4° C. for 2 h. As positive control, anti-MF-T (human IgG1) monoclonal antibody (NRC-HHT-Montreal) was used. The wells were washed with LCIS, then Biotin-Streptavidin, R-Phycoerythrin Conjugate (SAPE) or donkey anti-Human Alexa Fluor (AF488) (at 3 ug/ml final concentration) was added to the wells and incubated at 4° C. for 1 h. The secondary Ab was removed, the cells were washed with LCIS then 50 μL of DRAQ5 nuclear stain (1 μM prepared in LCIS; Cell Signaling, Danvers, MA, USA) was added to wells and incubated for 10 min at 4° C. […] Data were analyzed using Cellista software (TTP Labtech) and GraphPad Prism 6 software. […]
Cell binding activities of the selected VHHs were examined by Mirrorball where negative-(NCI-H1581) and positive (NCI-H292)-MSLN cells were cultured in 96 well plate and binding of the biotinylated VHHs was detected by Streptaviding-PE conjugate. As positive control, a human IgG1 mAb MF-T was used which was detected by donkey anti-human […].

Experiment [2] has as its target recombinant human mesothelin extracellular domain, isoform 1 (hMSLN-ECD, 10xHis) (human) (UniProt Q13421). The experiment can be described thus: SPR (Biacore T200), VHH over immobilized hMSLN-ECD, 1:1 model. In general terms: In SPR one partner is held on a chip, and binding of the other changes the refractive index at the surface.
Experiment [3] deals with T2, recombinant mouse mesothelin extracellular domain (mMSLN-ECD) (mouse, UniProt Q61468 298-600, limits assumed).
T2 construct: extracellular domain; also called mouse MSLN; mouse MSLN-ECD
T2 sequence (looked up): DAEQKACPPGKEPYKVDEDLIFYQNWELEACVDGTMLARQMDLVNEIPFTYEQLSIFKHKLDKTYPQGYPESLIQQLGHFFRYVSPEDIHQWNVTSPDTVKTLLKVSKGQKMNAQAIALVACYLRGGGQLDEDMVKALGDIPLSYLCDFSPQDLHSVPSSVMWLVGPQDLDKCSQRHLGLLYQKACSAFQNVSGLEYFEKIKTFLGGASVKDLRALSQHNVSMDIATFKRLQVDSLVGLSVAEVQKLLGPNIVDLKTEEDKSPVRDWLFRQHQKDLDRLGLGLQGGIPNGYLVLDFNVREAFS
As to the kind of experiment: SPR, VHH over immobilized mouse MSLN-ECD. On the procedure:
For surface Plasmon resonance, as mentioned above selected VHHs were passed though size exclusion columns, Superdex 75 (GE Healthcare), respectively, in 10 mM HEPES, pH 7.4, containing 150 mM NaCl, 3 mM EDTA, and monomeric sdAb fractions were collected and protein concentrations were determined by measuring absorbance at 280 nm (A280). SPR analysis were performed with Biacore T200 instrument (GE Healthcare). All measurements were carried out at 25° C. in 10 mM HEPES, pH 7.4, containing 150 mM NaCl, 3 mM EDTA and 0.005% surfactant P20 (GE Healthcare). Approximately 500 RUs of the recombinant monomeric human and mouse MSLN-ECD (obtained after SEC purification of the MSLN-ECD) were captured on SA sensor chip (GE Healthcare) at a flow rate of 5 uL/min. Various concentration of the monomeric VHHs (20-500 nM) were injected over MSLN-ECD surface, respectively using an SA surface as a reference at a flow rate of 40 μL/min. Surfaces were generated by washing with running buffer. Data were analysed with BIAevaluation 4.1 software.
The monomeric fraction of VHHs obtained by SEC purification were used for SPR experiment where the human or mouse MSLN-ECD was immobilized onto the […] and various VHH concentration (20-500 nM) were passed over the sensor chip. […] All of the data collected fit a 1:1 binding model (Table 3A).

In experiment [4] the target is recombinant human mesothelin extracellular domain, isoform 1 (hMSLN-ECD, 10xHis) (human) (UniProt Q13421). The experiment can be described thus: SPR (Biacore T200), VHH over immobilized hMSLN-ECD; no rate constants printed.
Experiment [5] deals with human mesothelin on MSLN-positive cells (NCI-H292, SKOV3) (human) (UniProt Q13421). The experiment can be described thus: cell-based or functional assay.

The values that follow come from patent publication US20260274984A1 (NATIONAL RESEARCH COUNCIL OF CANADA, published 2026).

T1 sequence (Q13421 other isoform, or with tags, fused parts or gaps limits assumed): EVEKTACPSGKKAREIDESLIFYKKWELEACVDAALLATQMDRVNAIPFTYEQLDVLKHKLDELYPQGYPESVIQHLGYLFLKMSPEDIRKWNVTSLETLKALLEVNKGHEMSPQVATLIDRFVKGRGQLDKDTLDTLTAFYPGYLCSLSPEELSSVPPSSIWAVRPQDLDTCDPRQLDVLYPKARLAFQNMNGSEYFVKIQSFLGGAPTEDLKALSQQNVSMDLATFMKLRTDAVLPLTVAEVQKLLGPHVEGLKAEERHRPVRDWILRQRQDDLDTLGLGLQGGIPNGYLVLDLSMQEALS
Chain of human mesothelin on MSLN-positive cells (NCI-H292, SKOV3) (human) (Q13421 other isoform, or with tags, fused parts or gaps limits assumed): as above

B1: hMSLN-TP7-4 (VHH)
VHH: QVQLVGSGGGLVRAGGSLRLSCAGSGLTFGSYAMAWYRQAPGKQRELVASISSRGVTNYADSVEGRFTISRDNAKSTVYLQMNDLKPEDAAVYYCNAKGPFMLREYDYWGQGTQVTVSS
notes: Llama VHH expressed in E. coli BL21(DE3), IMAC purified, monomeric SEC fraction used for SPR; biotinylated form used in the Mirrorball assay; also called VHH # 1
What is called EC50 (read off the curve) is the concentration at which the effect is half-maximal. A lower EC50 (read off the curve) goes with higher potency in that assay. One may read the Kd as the equilibrium constant for the complex coming apart. As usually defined, the koff is a measure of how fast the partners let go of each other. What is called kon is a measure of how fast the partners come together. On to B1, for which, in experiment [1], the 50% effective concentration (EC50 (read off the curve)) is around 1 nM. Besides, in experiment [2], the equilibrium dissociation constant (Kd) came to 0.225 nM, the koff was determined as 0.000388 s⁻¹ and the kon amounted to 1.72e+06 M⁻¹ s⁻¹. In experiment [3], the Kd was found to be 300 nM.

B2: hMSLN-bioTP7-48 (VHH)
VHH: QVKLEESGGGLVQPGGSLRLSCTASGSIWSASGLTWYRQRPGNERELVASITTGGETTWYADSVKGRFTISISRDNGKMITYLQMNSLKPEDTAVYLCNSRSYWGQGTQVTVSS
notes: Llama VHH expressed in E. coli; also called VHH # 10
For B2, the binding result in experiment [3] was “no binding (tested: 20-500 nM)”. The equilibrium dissociation constant (Kd) in experiment [4] turned out to be 276 nM.

B3: hMSLN-bioTP7-7 (VHH)
VHH: QVQLVESGGGLVQAGGSLRLSCAASGRTVSTYNMAWFRQAPGKEREIVAVINWTGGSTYYAESVKGRFTISRDNPKNTVYLQMNSLKPEDTAVYYCAATRTSWTENTYWGQGTQVTVSS
modifications: C-terminal His tag and AviTag from vector pMRO; letters not given, left off
notes: Llama VHH expressed in E. coli
On to B3, for which, in experiment [2], the Kd was 0.0924 nM, the dissociation rate constant (koff) is 0.000351 s⁻¹ and the kon came to 3.8e+06 M⁻¹ s⁻¹. Besides, the Kd in experiment [3] is 218 nM.

B4: hMSLN-TP7-38A (VHH)
VHH: QVKLEESGGGLVQPGGSLRLSCAASGRTVSAYNMAWFRQAPGKEREIVAVINWTGGGTYYAESVKGRFTISRDNPKNTVYLQMNSLKPEDTAVYYCAATRTSWTENTYWGQGTQVTVSS
notes: Llama VHH expressed in E. coli; also called VHH # 6
As for B4, in experiment [3], the binding result is recorded as “no binding (tested: 20-500 nM)”.

B5: hMSLN-TP7-9 (VHH)
VHH: DVQLVDSGGGLVQAGGSLRLSCAASGRTVSTYNMAWFRQAPGKEREIVAVINWTGGSTYYAESVKGRFTISGDNPKNTVYLQMNSLKPEDTAVYYCAATRASWTENTYWGQGTQVTVSS
notes: Llama VHH expressed in E. coli; biotinylated form used in the Mirrorball assay; also called VHH # 3
On to B5, for which the concentration for a half-maximal effect (EC50 (read off the curve)) in experiment [1] was around 3 nM. For the same molecule, in experiment [2], the dissociation constant (Kd) was 1.34 nM, the off-rate (koff) was 0.00238 s⁻¹ and the kon amounted to 1.78e+06 M⁻¹ s⁻¹. Also, the binding result in experiment [3] is “no binding (tested: 20-500 nM)”.

B6: hMSLN-mTP7-82 (VHH)
VHH: QVQLVESGGGLVQAGGSLRLSCAASGSIRSASGMHWYRQAPGKERELVASITTSGETTWYRDSVKGRFTISINNAKMMLYLQMNSLKFEDTAVYYCNLRSYWGQGTQVTVSS
notes: as for B3
B6: in experiment [2], the Kd was determined as 0.0579 nM, the off-rate (koff) turned out to be 0.000176 s⁻¹ and the kon was found to be 3.04e+06 M⁻¹ s⁻¹. Moreover, the Kd in experiment [3] amounted to 145 nM.

B7: hMSLN-biomTP7-41 (VHH)
VHH: QVQLVESGGGLVQPGGSLRLSCTASGIVRASGMAWYRQAPGKQRELVASITTGGETTWYADSVKGRFTISIDNAKMMLYLQMNALKPEDTAVYLCNQRSYWGQGTQVTVSS
modifications: C-terminal His tag and AviTag from vector pMRO; letters not given, left off
notes: Llama VHH expressed in E. coli; also called VHH # 9
B7: the binding result in experiment [3] is recorded as “no binding (tested: 20-500 nM)”. In addition, the equilibrium dissociation constant (Kd) in experiment [4] worked out at 214 nM.

B8: hMSLN-TP7-18 (VHH)
VHH: EVQLVESGGRLVQAGGSLRLSCVASGRAFKWWTMGWFRQAPGKEREFVASISWSDGSTTYGDSVKGRFAISRDNNKNTVYLQMNSLTPEDTAVYYCARYGKDLSGRHSKNVQDYDYWGQGTQVTVSS
notes: Llama VHH expressed in E. coli; also called VHH # 4
Take B8: the off-rate (koff) in experiment [2] came out at 0.0138 s⁻¹. Also, the binding result in experiment [3] was “no binding (tested: 20-500 nM)”.

B9: hMSLN-TP7-75A (VHH)
VHH: QVQLVESGGGLVQAGGSLSLSCAASGRTFSASAMAWFRQAPGTDREFVAAVAWGGRDTHYADSVKGRFTISMNNAKNTVVLQMNSLKPEDTAVYYCAAGQRGWSHSTSRDYDYWGQGTQVTVSS
notes: Llama VHH expressed in E. coli; also called VHH # 12
As for B9, in experiment [2], the Kd stood at 52 nM, the koff turned out to be 0.0305 s⁻¹ and the on-rate constant (kon) was 587000 M⁻¹ s⁻¹. Further, the binding result in experiment [3] is “no binding (tested: 20-500 nM)”.

B10: hMSLN-TP7-56 (VHH)
VHH: QVQLVESGGGLVQAGGSLRISCVASGRDFSSHFMGWSRQAPGKEREFVAAISWSGGTTYYADSVKGRFAISRDNDKTTVYLQMNSLKPEDSAVYYCAARRTYDSRTSLRNSYDYPYWGQGTQVTVSS
modifications: C-terminal His tag and AviTag (biotinylated in the Mirrorball assay) from vector pMRO; letters not given, left off
notes: Llama VHH expressed in E. coli; biotinylated form used in the Mirrorball assay; also called VHH # 7
B10: in experiment [2], the dissociation constant Kd amounted to 26.5 nM, the koff stood at 0.0201 s⁻¹ and the kon is 757000 M⁻¹ s⁻¹. Also, the binding result in experiment [3] was “no binding (tested: 20-500 nM)”.

B11: hMSLN-bioTP7-53 (VHH)
VHH: QVQLVESGGGLVQPGGSLRLACAASGGIGSLSNVRWYRQGPGKEREYVAGITGQSTTYYADSVKGRFTISRDNVKNTVDLQMNSLKPEDTAVYICNVATLRNEYWGQGTQVTVSS
notes: Llama VHH expressed in E. coli; also called VHH # 11
For B11, in experiment [2], the equilibrium dissociation constant (Kd) worked out at 0.571 nM, the koff worked out at 0.000433 s⁻¹ and the on-rate (kon) came out at 758000 M⁻¹ s⁻¹. For the same molecule, the binding result in experiment [3] is reported as “no binding (tested: 20-500 nM)”.

B12: hMSLN-TP7-35 (VHH)
VHH: QVQLVDSGGGLVQPGGSLRLSCTTSASTFRFFAMHWYRQAPGKERELVAVISRDGDAEYVDSVKGRFTISRDNAKNAVYLQMNSLKPEDTAVYYCHTRILSDHYWGQGTQVTVSS
modifications: C-terminal His tag and AviTag from vector pMRO; letters not given, left off
notes: Llama VHH expressed in E. coli; also called VHH # 5
Consider B12, for which the binding result in experiment [3] is “no binding (tested: 20-500 nM)”.

B13: hMSLN-TP7-5 (VHH)
VHH: QVKLEESGGGLVQAGGSLRISCAASGRSISDYFMGWFRQTPGKEREFVAAISWSGGTAYYADSVKGRFTISRDNAKNTGYLQMNSLKPEDTAVYFCAARLSYDSRTSLQNSYDYNYWGQGTQVTVSS
notes: Llama VHH expressed in E. coli; biotinylated form used in the Mirrorball assay; also called VHH # 2
Regarding B13, the EC50 of CD69 staining of Jurkat cells in co-culture with MSLN+ H292 cells in experiment [5] was determined as 1 nM. Further, the Kd in experiment [2] came out at 57.2 nM. The binding result in experiment [3] is “no binding (tested: 20-500 nM)”.
